The record followed here is the supplement of paper PMC10567573.

B1: NCF4 (parent)
chain: FGPDSKSSALACTLPTLPAKVYVG
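Also: lentivirally expressed fusions sorted by FACS into six bins by GFP to DsRed ratio, PSI derived from sequencing read proportions per bin multiplied by bin number.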

The variants in this data set derive from B1. Put plainly: protein stability index of a GFP-peptide fusion (GPS, HEK-293T) (PSI 1-6); higher = more stable. To be noted: c terminus: a fixed tail appended.
For the variant FGPDSKSSALACTLPTLHAKVYVG [P18H], the protein stability index was found to be 2.26.
FGPDSKSSALACTLPTLAAKVYVG [P18A]: the protein stability index amounted to 2.98.
As for FGPDSKSSALACTLPTLSAKVYVG [P18S], the protein stability index is 1.65.
For the variant FGPDSKSSALACTLPTLQAKVYVG [P18Q], the protein stability index was found to be 2.02.
As for FGPDSKSSALACTLPTLGAKVYVG [P18G], the protein stability index came to 2.12.
In the case of FGPDSKSSALACTLPTLCAKVYVG [P18C], the protein stability index came to 1.52.
Take FGPDSKSSALACTLPTLDAKVYVG [P18D]: the protein stability index turned out to be 2.71.
With FGPDSKSSALACTLPTLIAKVYVG [P18I], the protein stability index is 3.81.
In the case of FGPDSKSSALACTLPTLEAKVYVG [P18E] it was 2.23.
As to FGPDSKSSALACTLPTLKAKVYVG [P18K], the protein stability index is 2.15.
Consider FGPDSKSSALACTLPTLLAKVYVG [P18L], for which the protein stability index came out at 1.65.
With FGPDSKSSALACTLPTLRAKVYVG [P18R], the protein stability index stood at 1.61.
In the case of FGPDSKSSALACTLPTLFAKVYVG [P18F] it was 2.02; in that of FGPDSKSSALACTLPTLMAKVYVG [P18M], 1.75; in that of FGPDSKSSALACTLPTLVAKVYVG [P18V], 1.55.
With FGPDSKSSALACTLPTLYAKVYVG [P18Y], the protein stability index was 2.42.
In the case of FGPDSKSSALACTLPTLWAKVYVG [P18W] it was 2.77.
Regarding FGPDSKSSALACTLPTLTAKVYVG [P18T], the protein stability index was 2.03.
Turning to FGPDSKSSALACTLPTLNAKVYVG [P18N], the protein stability index amounted to 2.24.
FGPDSKSSALACTLPTLPAAVYVG [K20A]: the protein stability index came to 2.01.
Regarding FGPDSKSSALACTLPTLPAMVYVG [K20M], the protein stability index worked out at 1.64.
Consider FGPDSKSSALACTLPTLPAYVYVG [K20Y], for which the protein stability index amounted to 2.58.
For FGPDSKSSALACTLPTLPAWVYVG [K20W], the protein stability index was found to be 2.15.
For the variant FGPDSKSSALACTLPTLPADVYVG [K20D], the protein stability index was 2.64.
In the case of FGPDSKSSALACTLPTLPAPVYVG [K20P], the protein stability index was determined as 2.35.
As to FGPDSKSSALACTLPTLPAGVYVG [K20G], the protein stability index worked out at 2.38.
Take FGPDSKSSALACTLPTLPARVYVG [K20R]: the protein stability index is 2.
In the case of FGPDSKSSALACTLPTLPAVVYVG [K20V] it was 1.81; in that of FGPDSKSSALACTLPTLPAEVYVG [K20E], 2.13.
In the case of FGPDSKSSALACTLPTLPAQVYVG [K20Q] it was 2.08; in that of FGPDSKSSALACTLPTLPAHVYVG [K20H], 2.19.
On to FGPDSKSSALACTLPTLPAIVYVG [K20I], for which the protein stability index came to 2.76.
Take FGPDSKSSALACTLPTLPACVYVG [K20C]: the protein stability index came out at 2.48.
As for FGPDSKSSALACTLPTLPATVYVG [K20T], the protein stability index worked out at 1.98.
As for FGPDSKSSALACTLPTLPAFVYVG [K20F], the protein stability index amounted to 2.48.
In the case of FGPDSKSSALACTLPTLPANVYVG [K20N] it was 2.49; in that of FGPDSKSSALACTLPTLPASVYVG [K20S], 2.31.
For FGPDSKSSALACTLPTLPAKTYVG [V21T], the protein stability index amounted to 3.05.
FGPDSKSSALACTLPTLPAKGYVG [V21G]: the protein stability index is 2.56.
In the case of FGPDSKSSALACTLPTLPAKCYVG [V21C] it was 2.58; in that of FGPDSKSSALACTLPTLPAKLYVG [V21L], 1.91; in that of FGPDSKSSALACTLPTLPAKQYVG [V21Q], 2.81.
Regarding FGPDSKSSALACTLPTLPAKYYVG [V21Y], the protein stability index was 2.1.
In the case of FGPDSKSSALACTLPTLPAKHYVG [V21H], the protein stability index is 2.44.
Take FGPDSKSSALACTLPTLPAKMYVG [V21M]: the protein stability index came to 1.8.
In the case of FGPDSKSSALACTLPTLPAKNYVG [V21N] it was 3.32.
Take FGPDSKSSALACTLPTLPAKIYVG [V21I]: the protein stability index worked out at 1.91.
Take FGPDSKSSALACTLPTLPAKPYVG [V21P]: the protein stability index was determined as 2.73.
In the case of FGPDSKSSALACTLPTLPAKWYVG [V21W] it was 2.63.
As for FGPDSKSSALACTLPTLPAKRYVG [V21R], the protein stability index stood at 3.29.
For the variant FGPDSKSSALACTLPTLPAKFYVG [V21F], the protein stability index is 2.
With FGPDSKSSALACTLPTLPAKSYVG [V21S], the protein stability index turned out to be 2.61.
Consider FGPDSKSSALACTLPTLPAKKYVG [V21K], for which the protein stability index is 3.09.
In the case of FGPDSKSSALACTLPTLPAKAYVG [V21A], the protein stability index was 2.71.
Turning to FGPDSKSSALACTLPTLPAKEYVG [V21E], the protein stability index was determined as 3.17.
Consider FGPDSKSSALACTLPTLPAKDYVG [V21D], for which the protein stability index came out at 3.28.
Take FGPDSKSSALACTLPTLPCKVYVG [A19C]: the protein stability index was 1.74.
Turning to FGPDSKSSALACTLPTLPQKVYVG [A19Q], the protein stability index worked out at 1.91.
For the variant FGPDSKSSALACTLPTLPLKVYVG [A19L], the protein stability index came out at 1.41.
For FGPDSKSSALACTLPTLPGKVYVG [A19G], the protein stability index worked out at 2.58.
Turning to FGPDSKSSALACTLPTLPFKVYVG [A19F], the protein stability index amounted to 2.35.
In the case of FGPDSKSSALACTLPTLPWKVYVG [A19W] it was 1.26; in that of FGPDSKSSALACTLPTLPKKVYVG [A19K], 2.38; in that of FGPDSKSSALACTLPTLPPKVYVG [A19P], 2.46.
On to FGPDSKSSALACTLPTLPEKVYVG [A19E], for which the protein stability index was 2.56.
For the variant FGPDSKSSALACTLPTLPIKVYVG [A19I], the protein stability index is 1.87.
In the case of FGPDSKSSALACTLPTLPMKVYVG [A19M] it was 1.55; in that of FGPDSKSSALACTLPTLPSKVYVG [A19S], 2.14.
On to FGPDSKSSALACTLPTLPHKVYVG [A19H], for which the protein stability index came to 2.17.
Take FGPDSKSSALACTLPTLPYKVYVG [A19Y]: the protein stability index is 1.95.
In the case of FGPDSKSSALACTLPTLPTKVYVG [A19T] it was 2.05.
With FGPDSKSSALACTLPTLPDKVYVG [A19D], the protein stability index came out at 2.6.
In the case of FGPDSKSSALACTLPTLPNKVYVG [A19N] it was 2.31; in that of FGPDSKSSALACTLPTLPVKVYVG [A19V], 2.76; in that of FGPDSKSSALACTLPTLPRKVYVG [A19R], 2.47.
In the case of FGPDSKSSALACTLPTLPAKVHVG [Y22H], the protein stability index was found to be 2.87.
FGPDSKSSALACTLPTLPAKVNVG [Y22N]: the protein stability index was 2.94.
As to FGPDSKSSALACTLPTLPAKVKVG [Y22K], the protein stability index came to 2.95.
In the case of FGPDSKSSALACTLPTLPAKVEVG [Y22E] it was 2.85.
With FGPDSKSSALACTLPTLPAKVAVG [Y22A], the protein stability index worked out at 2.71.
On to FGPDSKSSALACTLPTLPAKVCVG [Y22C], for which the protein stability index was 2.63.
Take FGPDSKSSALACTLPTLPAKVFVG [Y22F]: the protein stability index came out at 2.67.
In the case of FGPDSKSSALACTLPTLPAKVIVG [Y22I], the protein stability index amounted to 2.36.
Take FGPDSKSSALACTLPTLPAKVGVG [Y22G]: the protein stability index amounted to 3.11.
Consider FGPDSKSSALACTLPTLPAKVMVG [Y22M], for which the protein stability index came to 2.7.
As for FGPDSKSSALACTLPTLPAKVDVG [Y22D], the protein stability index turned out to be 2.83.
For FGPDSKSSALACTLPTLPAKVLVG [Y22L], the protein stability index came out at 2.12.
On to FGPDSKSSALACTLPTSPAKVYVG [L17S], for which the protein stability index was found to be 2.16.
In the case of FGPDSKSSALACTLPTWPAKVYVG [L17W] it was 1.88; in that of FGPDSKSSALACTLPTYPAKVYVG [L17Y], 1.54; in that of FGPDSKSSALACTLPTVPAKVYVG [L17V], 2.29.
In the case of FGPDSKSSALACTLPTTPAKVYVG [L17T], the protein stability index was found to be 2.43.
FGPDSKSSALACTLPTRPAKVYVG [L17R]: the protein stability index stood at 2.2.
In the case of FGPDSKSSALACTLPTQPAKVYVG [L17Q] it was 3.03.
